# Data: US20090280138A1 (OXFORD BIOMEDICA UK, published 2009)
# Molecular target: T1, MHC class I molecule A*0201 (biotin (bound to streptavidin-coated plate))
# T1 construct: iTopia monomer stripped of placeholder peptide and b2M, then reconstituted with test peptide and fresh b2M; also called A2; HLA-A2
# Experiment: iTopia peptide binding assay
# Summary of the method: (§1)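 In this kit-based ELISA, nonamer peptides are scored in duplicate for binding to plate-bound MHC under standardized optimal conditions, alongside allele-specific positive controls. Peptides classed as binders proceed to dissociation and affinity experiments.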
row,Binder,"binding, % of positive control peptide"
1,GAIFLLVLY [5T4 9-mer peptide 184 (GAIFLLVLY)],5 % of positive control
2,YRYEINADP [5T4 9-mer peptide 201 (YRYEINADP)],0 % of positive control
3,EGYHYRYEI [5T4 9-mer peptide 199 (EGYHYRYEI)],9 % of positive control
4,PRLTNLSSN [5T4 9-mer peptide 205 (PRLTNLSSN)],8 % of positive control
5,NIRDACRDH [5T4 9-mer peptide 194 (NIRDACRDH)],1 % of positive control
6,IFLLVLYLN [5T4 9-mer peptide 185 (IFLLVLYLN)],8 % of positive control
7,DCDPILPPS [5T4 9-mer peptide 172 (DCDPILPPS)],0 % of positive control
8,RDHMEGYHY [5T4 9-mer peptide 197 (RDHMEGYHY)],6 % of positive control
9,ACRDHMEGY [5T4 9-mer peptide 196 (ACRDHMEGY)],8 % of positive control
10,KGIKKWMHN [5T4 9-mer peptide 190 (KGIKKWMHN)],14 % of positive control
11,DLDCDPILP [5T4 9-mer peptide 171 (DLDCDPILP)],0 % of positive control
12,YHYRYEINA [5T4 9-mer peptide 200 (YHYRYEINA)],7 % of positive control
13,LGIVLALIG [5T4 9-mer peptide 180 (LGIVLALIG)],10 % of positive control
14,INADPRLTN [5T4 9-mer peptide 203 (INADPRLTN)],3 % of positive control
15,DPILPPSLQ [5T4 9-mer peptide 173 (DPILPPSLQ)],7 % of positive control

# Molecular target: T2, MHC class I molecule A*0301 (biotin (bound to streptavidin-coated plate))
# T2 construct: iTopia monomer stripped of placeholder peptide and b2M, then reconstituted with test peptide and fresh b2M; also called A3; HLA-A3
# Experiment: iTopia peptide binding assay
# Summary of the method: as §1
row,Binder,"binding, % of positive control peptide"
1,GAIFLLVLY [5T4 9-mer peptide 184 (GAIFLLVLY)],5 % of positive control
2,YRYEINADP [5T4 9-mer peptide 201 (YRYEINADP)],1 % of positive control
3,EGYHYRYEI [5T4 9-mer peptide 199 (EGYHYRYEI)],0 % of positive control
4,PRLTNLSSN [5T4 9-mer peptide 205 (PRLTNLSSN)],2 % of positive control
5,NIRDACRDH [5T4 9-mer peptide 194 (NIRDACRDH)],0 % of positive control
6,IFLLVLYLN [5T4 9-mer peptide 185 (IFLLVLYLN)],0 % of positive control
7,DCDPILPPS [5T4 9-mer peptide 172 (DCDPILPPS)],3 % of positive control
8,RDHMEGYHY [5T4 9-mer peptide 197 (RDHMEGYHY)],3 % of positive control
9,ACRDHMEGY [5T4 9-mer peptide 196 (ACRDHMEGY)],4 % of positive control
10,KGIKKWMHN [5T4 9-mer peptide 190 (KGIKKWMHN)],3 % of positive control
11,DLDCDPILP [5T4 9-mer peptide 171 (DLDCDPILP)],4 % of positive control
12,YHYRYEINA [5T4 9-mer peptide 200 (YHYRYEINA)],1 % of positive control
13,LGIVLALIG [5T4 9-mer peptide 180 (LGIVLALIG)],1 % of positive control
14,INADPRLTN [5T4 9-mer peptide 203 (INADPRLTN)],1 % of positive control
15,DPILPPSLQ [5T4 9-mer peptide 173 (DPILPPSLQ)],4 % of positive control

# Molecular target: T3, MHC class I molecule A*0101 (biotin (bound to streptavidin-coated plate))
# T3 construct: iTopia monomer stripped of placeholder peptide and b2M, then reconstituted with test peptide and fresh b2M; also called A1; HLA-A1
# Experiment: iTopia peptide binding assay
# Summary of the method: as §1
row,Binder,"binding, % of positive control peptide"
1,GAIFLLVLY [5T4 9-mer peptide 184 (GAIFLLVLY)],0 % of positive control
2,YRYEINADP [5T4 9-mer peptide 201 (YRYEINADP)],0 % of positive control
3,EGYHYRYEI [5T4 9-mer peptide 199 (EGYHYRYEI)],0 % of positive control
4,PRLTNLSSN [5T4 9-mer peptide 205 (PRLTNLSSN)],2 % of positive control
5,NIRDACRDH [5T4 9-mer peptide 194 (NIRDACRDH)],0 % of positive control
6,IFLLVLYLN [5T4 9-mer peptide 185 (IFLLVLYLN)],0 % of positive control
7,DCDPILPPS [5T4 9-mer peptide 172 (DCDPILPPS)],0 % of positive control
8,RDHMEGYHY [5T4 9-mer peptide 197 (RDHMEGYHY)],11 % of positive control
9,ACRDHMEGY [5T4 9-mer peptide 196 (ACRDHMEGY)],3 % of positive control
10,KGIKKWMHN [5T4 9-mer peptide 190 (KGIKKWMHN)],3 % of positive control
11,DLDCDPILP [5T4 9-mer peptide 171 (DLDCDPILP)],0 % of positive control
12,YHYRYEINA [5T4 9-mer peptide 200 (YHYRYEINA)],0 % of positive control
13,LGIVLALIG [5T4 9-mer peptide 180 (LGIVLALIG)],0 % of positive control
14,INADPRLTN [5T4 9-mer peptide 203 (INADPRLTN)],0 % of positive control
15,DPILPPSLQ [5T4 9-mer peptide 173 (DPILPPSLQ)],0 % of positive control

# Molecular target: T4, MHC class I molecule B*0702 (biotin (bound to streptavidin-coated plate))
# T4 construct: iTopia monomer stripped of placeholder peptide and b2M, then reconstituted with test peptide and fresh b2M; also called B7; HLA-B7
# Experiment: iTopia peptide binding assay
# Summary of the method: as §1
row,Binder,"binding, % of positive control peptide"
1,GAIFLLVLY [5T4 9-mer peptide 184 (GAIFLLVLY)],0 % of positive control
2,YRYEINADP [5T4 9-mer peptide 201 (YRYEINADP)],3 % of positive control
3,EGYHYRYEI [5T4 9-mer peptide 199 (EGYHYRYEI)],4 % of positive control
4,PRLTNLSSN [5T4 9-mer peptide 205 (PRLTNLSSN)],11 % of positive control
5,NIRDACRDH [5T4 9-mer peptide 194 (NIRDACRDH)],6 % of positive control
6,IFLLVLYLN [5T4 9-mer peptide 185 (IFLLVLYLN)],2 % of positive control
7,DCDPILPPS [5T4 9-mer peptide 172 (DCDPILPPS)],0 % of positive control
8,RDHMEGYHY [5T4 9-mer peptide 197 (RDHMEGYHY)],5 % of positive control
9,ACRDHMEGY [5T4 9-mer peptide 196 (ACRDHMEGY)],7 % of positive control
10,KGIKKWMHN [5T4 9-mer peptide 190 (KGIKKWMHN)],6 % of positive control
11,DLDCDPILP [5T4 9-mer peptide 171 (DLDCDPILP)],3 % of positive control
12,YHYRYEINA [5T4 9-mer peptide 200 (YHYRYEINA)],5 % of positive control
13,LGIVLALIG [5T4 9-mer peptide 180 (LGIVLALIG)],0 % of positive control
14,INADPRLTN [5T4 9-mer peptide 203 (INADPRLTN)],4 % of positive control
15,DPILPPSLQ [5T4 9-mer peptide 173 (DPILPPSLQ)],0 % of positive control
